Data reported in the DeepSol protein solubility set.

test: soluble on expression in E. coli; label from the status in PepcDB or PDB records

| Sequence | soluble on expression in E. coli |
| --- | --- |
| MGSDKIHHHHHHMAFAQLQIVSSLADAYSKDGADALILIGNFDSIDDSALAETIQQAQITDQRVGKQPLLLKADGVPGQRLVAAPTGPLNRDFDDVRQVFDAAHAAAKVAQDAGARHPVIALNNVNVNDERYQQAFLAAYLGFCQALYQPLEAREAHGEEAIEPTQNVILVGELDVEWAMAVEAGKRVARDLAGTEPERMAPPKFAEYCRQAFAHTSVKVTVIDDYQQLQHEYPLLAAVGRSSMAVERHRPCVIRLEYHGNNPERTVMFAGKGIVYDTGGADLKTGGHMAGMSRDKGGAAGVAGFLKTVSELQPEHLNVVAEIGAVRNSIGSDAFVADEIITGHSGKRVRIGNTDAEGRLIMADLLSHLREEAAKSDGEHELYTVATLTGHAALSKGPYSALVPNGHARRQNLAQALFNAGETYGDPTEISWSRREDFDFVKGRTLCDDLLSSNNGPSAATPRGHQFPMAFLTGVSGLDNHGIDSEHPISYIHIDIAGSGVEGGDWQHGKPTAAPVTCLAGHYLKK | not soluble |
| MSGRVGDLSPRQKEALAKFRENVQDVLPALPNPDDYFLLRWLRARSFDLQKSEAMLRKHVEFRKQKDIDNIISWQPPEVIQQYLSGGMCGYDLDGCPVWYDIIGPLDAKGLLFSASKQDLLRTKMRECELLLQECAHQTTKLGRKVETITIIYDCEGLGLKHLWKPAVEAYGEFLCMFEENYPETLKRLFVVKAPKLFPVAYNLIKPFLSEDTRKKIMVLGANWKEVLLKHISPDQVPVEYGGTMTDPDGNPKCKSKINYGGDIPRKYYVRDQVKQQYEHSVQISRGSSHQVEYEILFPGCVLRWQFMSDGADVGFGIFLKTKMGERQRAGEMTEVLPNQRYNSHLVPEDGTLTCSDPGIYVLRFDNTYSFIHAKKVNFTVEVLLPDKASEEKMKQLGAGTPK | soluble |
| MGSDKIHHHHHHMKNLLDLTGKLNIYSPKFNRYQTSLMKIDMHRTKLEQKQPHFDAQKRRKKECKNSNTPFVRPKLELPHGHNKLLLHSCCAPCSGEVMEAIHASGIDFTIYFYNPNIHPLKEYLIRKEENIRFAEKWGIPFIDADYDRQNWFDRAKGMEDEPERGIRCTMCFDMRFEKAAQYAHENGFPVFTSCLGISRWKDMNQINGCGHRAAEKYDDVVYWDYNWRKGGGSQRMIEISKRERFYQQEYCGCVYSLRDTNKWREANGRQKIEIGKLYYSADK | not soluble |
| MAKHGADEPSSRSGSPDREGRASEDRSLLHQRLAVRELIDTEVSYLHMLQLCASDIRSRLQQLPQGDLDVLFSNIDDIIKVNSRFLHDLQETASKEEEQVQLVGNIFLEFQEELEQVYKVYCASYDQALLLVDTYRKEPELQRHIQGIVEAVVPQAGSSGLSFLLVIPLQRITRYPLLLQKILENTVPDASAYPVLQRAVSALQDVNTNINEYKMRKEVASKYTKVEQLTLRERLARINTHTLSKKTTRLSQLLKQEAGLIPRTEDKEFDDLEERFQWVSLCVTELKNNVAAYLDNLQGAVGFYHWLTPTQMIDGLALGESTPGPLIMVVAFVGFLAAYNHSLLGAEHQFIAVLQDVRDHRITQVRAAEILNLSTRQITRLLQKLNQDGVSGLAHASRGQPGHHRHDELLKSKCLSIISEHLLGFGPTLAHEKLSSIFDLNIPVETVRRWMMANDLWIPRSKRLKRPYQPRYNRDCFGELIQIDGSYHDWFEGRAAKCCLLVYIDDATGKLLHLRFCEAETTFDYMLSTRAYIEQYGKPLAFYSDKHSVFRVNQKSRKDSQITQFGRILNELNIDIIFANSPQAKGRVERANRTLQDRLIKEMRLEGISSIAEANAWLPCFIEHFNQKFAKCARNSKNLHRSLTESDAELEDIFTWQEPRKVTKNLTITYDKCIYLLEPTELNHKLVGQYISFLEYPDGTVALMHEGRKINYSVFNKLAGLQQNEVVENKRLGSVLAHIQQQHEELEKQNKRSRLKKSMPSRKAQKAVIEQRKLNPVLDSCG | soluble |
| GPGSMVEACFLCLDSTEYMRNGDQYPTRMMAEQDAACLLANAKLQANAENTLGFLTTGGNACTVYETLTNNVDAIMTSIGSIPVNGKRCNFSSGLQIASLALSHRTNSRAEKRIVAFVGSPIGETAAELEALAKKLRKDDVAVDVVAFGVESNVELLQAFVKKVSKKENSRFLAVAARENLTDKLMSNAILLGEDLPEGAEGGGASMSGFGVDPNMDPELAMALRLSMEDEMQRQAAAAAAAASSAAPESAPASGSAATPAAPAAPAAAPVVDEDELSYENMSEEEMMRRAIALSLQDTAQGASDTASSPSVPQPATTSEACRNEEENEDDFAKGVEAALEEEEDEENRS | soluble |
| MAHHHHHHMDKKRSIVKKPERGSFLLDHNSECTPIKNDYLKCLKEHNNDHVSCREYSKEYFICRMDKNLLERQSLNDLGFSENETNHESRIKHFKDVYSYNVYNETMESFPKGRALKRTDTASGAVFVEEKLTQGKRDNKADMKPARGDDFLLLNLRNDKEGEQKINGKVFEITQEKKIAVKRKEEEGYLAGKEYIKTLVEKKKRHPLFSYNIFKSSNT | soluble |
| MNLRTQKFHMYFKQWIELYKEGAVRPVTYQKYQMSHKHLVTLAPDLHMDELKRRTYQELINEFAANHEKQTTLDFHHHLKAAILDALDEGILEQDPTRKVVIKGTLEHHHHHH | soluble |
| MIDLLQADGNALPSAVKLAYSPASKTFESYRVMTQVHTNDATKKVIVKLADTPQLTDVLNSTVQMPISVSWGGQVLSTTAKEFEAAALGYSASGVNGVSSSQELVISAAPKTAGTAPTAGNYSGVVSLVMTLGSDNKQVEKNITVTASVDPVIDLLQADGNALPSAVKLAYSPASKTFESYRVMTQVHTNDATKKVIVKLADTPQLTDVLNSTVQMPISVSWGGQVLSTTAKEFEAAALGYSASGVNGVSSSQELVISAAPKTAGTAPTAGNYSGVVSLVMTLGSDNKQVEKNITVTASVDPVIDLLQADGNALPSAVKLAYSPASKTFESYRVMTQVHTNDATKKVIVKLADTPQLTDVLNSTVQMPISVSWGGQVLSTTAKEFEAAALGYSASGVNGVSSSQELVISAAPKTAGTAPTAGNYSGVVSLVMTLGSDNKQVEKNITVTASVDPVILEHHHHHH | soluble |
| MAHHHHHHMDPLLLGTSAGLERNCTVLFSHLTALCGTKPAGEPHNPLQVHLRVDDGHRDTALQHIKVLYDVAVRHNPRTSVTVVPLAPLEYYETPNRNTNSREGHKLPLFTASLMTPNCGFNPVYKGVAVGGTFDRLHGGHKLLLTTALLHATQVLRIGVTVSTMLTTKIHADLIEPFEVRCAAVTKFAHLLRPDLGLEVAGIADRAGGADSDPSLEALVVSPETVGALPSINTARLSVGLKPLECVLVPYVGVCDDEESRVSSTNIRKRLCELST | soluble |
| HVYDEQIYRKSSEVLRMSSERIEDELKKIEDVSYEIITDEQIQRILSMQNRDDTYDQYQMKQELWDQLAGYASDEKYIDSIHVIDARGSEYSAGSSSSDLLQQEQEEVFKRAKAKSGRNLWMTLGGSDPVLISARQIRSYHQLSLNGLGMVLIQVNVKQMIRDVPKDWGDSVGDIMIADQGGNLVYTAHASAHVPEAAKETLKHPGYDLIKKNGKRYFISYLQSSYQNWSYYNVIPFDQMFAK | not soluble |
| MSLRITGPYQSFARYETALLGFLSHASGMATAALAARRAAPDSHLLSFGARHVHPSIAAVVERAALIGGFDGFSHVAAGDVLDREPGGTMPHALVICFGRGNQEAAWRAFTDGVGDDVPRIALCDTYSDEKDEVLRAVDELGDDLDAVRLDTTSSRRGDFRHIAREVQWALDAGGNSDVSVFVSGGLTPTDLRGLRDVVDGFGVGGFVSNATPVDFGLDIVEVAGEPAAKRGKLSGTKAVYRTPDGGHHVALASQPAPADATALLEPLLVDGTVSMAFDIDDAAARARQDARAVSFRQEGHHHHHH | soluble |
| MSLADPGREGHLEQRILQVLTEAGSPVKLAQLVKECQAPKRELNQVLYRMKKELKVSLTSPATWCLGGTDPEGEGPAELALSSPAERPQQHAATIPETPGPQFSQQREEDIYRFLKDNGPQRALVIAQALGMRTAKDVNRDLYRMKSRHLLDMDEQSKAWTIYRPEDSGREGHHHHHH | soluble |
| MAHHHHHHMPSGERRGRVGPVRFRTFLRNTVLDVMRSRGWLETDSDLGWDLFWADVGWIREVHDHVRLDDVQRINHFRNHFELTRKDFMVKNLKRMRKSLEREGRLEEATEFDFFPVTFSLPQDYGMFETEFRRQPNAIWIMKPPAKAQGKGIFLFSKISQIAEWRKDYKQRQVGAVGEKAGGPYGAEQVEPYLAQRYIENPHLVGGKKYDLRVYVLVTCYSPLTVWLHRTGFARFCHQRFSLRDIENTFIHVTNVAVQKTNPKYTPSSGCKYGLRNLRQYITASRGVETAQKLFDDIQNMILRSLHAVQKIIVQDKHCFELYGYDIMVDNDLHPWLIETNASPSLSAETPADYHLKFNMLEDMFSVIDIEKRRTGDEIRVGGFDLIWKNGPVGPACRGDAKGGGVTQSFLGCANELEIPISHMRMPPRLQQMDSSERLLT | not soluble |
| MAHHHHHHMKNKNKYDYLLKLLLVGDSSVGKSSILCRYSDNQFEEKVLSTIGIDFKVKYLKIDNKTIKVGIWDTAGQERFRTLTSAYYRNAHAIILVYDCTVRESFENLDVWINEIDKYSTNKNAIKMLVANKIDKPNHEVTKDEGKNFAFENNMLFCETSAKNDINITYCFEELIQQILNNPSLLELSIVTKNLKLGKKEESRSNCAC | soluble |
| MKKKIIIAIVASAITMTHFVGNTYADSKTEVSVTAPYNTNQIAKWLEAHAKPLKTTNPTASLNDLKPLKNMVGSASIVGLGEATHGAHEVFTMKHRIVKYLVSEKGFTNLVLEEGWDRALELDRYVLTGKGNPSQHLTPVFKTKEMLDLLDWIRQYNANPKHKSKVRVIGMDIQSVNENVYNNIIEYIKANNSKLLPRVEEKIKGLIPVTKDMNTFESLTKEEKEKYVLDAKTISALLEENKSYLNGKSKEFAWIKQNARIIEQFTTMLATPPDKPADFYLKHDIAMYENAKWTEEHLGKTIVWGHNGHVSKTNMLSFIYPKVAGQHLAEYYGKRYVSIGTSVYEGQYNVKNSDGEFGPYGTLKSDDPNSYNYIFGQVKKDQFFIDLRKANGVTKTWLNEQHPIFAGITTEGPDIPKTVDISLGKAFDILVQIQKVSPSQVHQLEHHHHHH | soluble |
| EQIDRWNQVSEYIERLNVLEDNGSNTLIIASGIAYPYVKEITEEEGLNANIFRLVTPVPIPEKSILDSMTRVKKVLVVEENDPVVELQLSQLMVKNGIMKELHGKDLVSPIGELTLEKVRGAIMGFFGKEYVRSYPDDVSLRTRPPALCPGCPHRSSFYDIKKGLSKVSMQKAFFSGDIGCYTLGALPPFNEQDSATNMGSSVGISNGVFRATGQIPVSIIGDSTFFHSGLQGVANAVYNGTPEIIIVLDNRSTAMTGQQPSPSTHISIENVARAMGIDFVDTFDPFDVKEGSDAVQKAAEYVKENKKPALIVAKRACALEVLEKVGDYTMKAEVDLEKCTGCSICYDFFTCPSILPLSNKKAFIDDSCIGCGACVEVCPFNAIK | not soluble |
| AHHHHHHGSSNIVKGIVKWVEGEQFIGGIEGENCSVILGEGGISPMKLLLLSVAGCTAYDVVMILRKMREPIRGLRVEIEGVRREEHPRVYKEVTIHYKIYGKVDEKKARRAIELSQEKYCSASAHLKLGGTIVRYTLEIFDDEPPSHAEG | soluble |
| MSPNPVEKAAILRIIDSIDARDDDYCAHEFNVYRWLVAYGNEEEEAAKALKRHLNIRKTIDLNSYSSKTELEEDELNKYVPIDVIGQNHQDDNKVLMFERTGKIDISGLVDNVLMHKFMQIKLKMMEGVHQKVVAAERKTGRQSGGLFIMDLDGISFSPKLISVLTGPYRIMWGTLFDHYPQLLQKIIIVNAPSFVNVLHQACSPFLPEDYKEKIVITSEPAIGAIQKHADKCFLPSDLGGDLEKTTSLPMAPFPKMNKKYEKEKEKVSLLAISVPAGKYTVQKFSWKKGDEVEFFLHNESSFHYFMFHSEEDTKDMDLWREMTVGCERPALSQIDSWKYTVPIDGFYFIRYGNHNSWYFSTTVNVNHFISNENGERIELVPIETFNI | not soluble |
